In article PMC5558740, “Absence of CX3CR1 impairs the internalization of Tau by microglia” (Molecular Neurodegeneration, 2017):

Tests used:
[1] = target: T1, recombinant human Tau isoform containing 2 N-terminal inserts and 4 microtubule binding repeats (Tau42) (human, UniProt P10636-8 1-441); experiment: affinity chromatography; CX3CR1 peptide coupled to CNBr-activated Sepharose 4B; protein (1 mg/ml) loaded in buffer A (0.1 M Mes pH 6.4, 0.5 mM MgCl2, 2 mM EGTA); bound protein eluted with 0.5 M NaCl in buffer A; fractions read by dot immunoblot; conditions: both partners purified
T1 construct: also called purified Tau; source: recombinant, isolated as described previously [25], purified
T1 sequence (P10636 other isoform, or with tags, fused parts or gaps): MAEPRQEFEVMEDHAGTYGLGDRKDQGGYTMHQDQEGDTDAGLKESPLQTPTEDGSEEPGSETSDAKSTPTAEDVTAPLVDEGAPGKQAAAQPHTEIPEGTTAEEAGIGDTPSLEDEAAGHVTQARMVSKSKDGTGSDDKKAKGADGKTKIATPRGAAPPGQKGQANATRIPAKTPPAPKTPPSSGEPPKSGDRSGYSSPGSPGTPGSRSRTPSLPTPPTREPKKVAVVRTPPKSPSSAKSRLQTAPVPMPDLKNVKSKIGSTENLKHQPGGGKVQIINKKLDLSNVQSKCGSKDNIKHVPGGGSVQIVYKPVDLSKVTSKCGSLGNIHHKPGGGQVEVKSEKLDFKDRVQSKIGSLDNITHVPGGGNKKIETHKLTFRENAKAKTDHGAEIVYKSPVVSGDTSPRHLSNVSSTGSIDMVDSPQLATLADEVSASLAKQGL

[2] = target: T2, Tau42 phosphorylated by GSK-3β (phospho-Tau) (human, UniProt P10636-8 1-441, phosphorylated by GSK-3β; phosphoserine at 396 (detected with anti-p-S396); other sites not stated); experiment: as above; conditions: both partners purified
T2 construct: the Cy5-labelled form (phospho-Tau-Cy5) was used for the uptake test on microglia; also called Tau phosphorylated by GSK-3β; source: recombinant Tau42 phosphorylated in vitro by GSK-3β (Sigma), heated 5 min at 100 °C, supernatant collected
T2 sequence (P10636 other isoform, or with tags, fused parts or gaps): as above

- binding result [1]: binds
- binding result [2]: binds
B1: synthetic CX3CR1 peptide (aa 2-21) containing the binding region to CX3CL1 (peptide)
peptide: DQFPESVTENFEYDDLAEAC
notes: also called synthetic receptor CX3CR1; source: synthetic peptide, bought: Abyntek
